Measurements from publication PMC5979349, “The Recombinant Inhibitor of DNA Binding Id2 Forms Multimeric Structures via the Helix-Loop-Helix Domain and the Nuclear Export Signal” (International Journal of Molecular Sciences, 2018).

B1: recombinant full-length human Id2 protein, preparation with oligomers of the type Id2nβMEn (natural protein, UniProt Q02363 1-134, looked up)
chain: MKAFSPVRSVRKNSLSDHSLGISRSKTPVDDPMSLLYNMNDCYSKLKELVPSIPQNKKVSKMEILQHVIDYILDLQIALDSHPTIVSLHHQRPGQNQASRTPLTTLNTDISILSLQASEFPSELMSNDSKALCG
modifications: mixed disulfide with βME, as Id2nβMEn (n = 2–4)
notes: the His-tag of pET22b(+) was excluded by a double stop; Another preparation of the same construct as m1; the formula implies one βME for each monomer, so one cysteine of each monomer is free or in an intermolecular disulfide
B2: recombinant full-length human Id2 protein, sample Id2’ (natural protein, UniProt Q02363 1-134, looked up)
chain: MKAFSPVRSVRKNSLSDHSLGISRSKTPVDDPMSLLYNMNDCYSKLKELVPSIPQNKKVSKMEILQHVIDYILDLQIALDSHPTIVSLHHQRPGQNQASRTPLTTLNTDISILSLQASEFPSELMSNDSKALCG
modifications: both cysteine residues (Cys-42 and Cys-133) disulfide-bonded to β-mercaptoethanol (βME); one oxidized methionine residue, Met(O)
notes: the His-tag of pET22b(+) was excluded by a double stop; The most homogeneous unlabeled preparation; also called Id2 1–134

Columns and labels:
[1] = molecular target: the molecule itself; experiment: MALDI-TOF mass spectrometry; lyophilized protein dissolved in water, α-cyano-4-hydroxycinnamic acid as matrix
[2] = molecular target: the molecule itself; experiment: NMR diffusion-ordered spectroscopy (DOSY); unlabeled Id2’ at 0.27 mM in H2O/D2O (94:6, v/v); calibration curve with protein standards
[3] = molecular target: the molecule itself; experiment: dynamic light scattering; Id2’ 80 μM in pure water, 21 °C, measured immediately after filtration (0.2 μm); globular model for molecular weight
[4] = molecular target: the molecule itself; experiment: dynamic light scattering; Id2’ 80 μM in pure water, 21 °C, two weeks old filtered sample; globular model for molecular weight

Protein | stoichiometry N [1] | stoichiometry N [2] | stoichiometry N [3] | stoichiometry N [4]
B1 | 2 to 4 |  |  | 
B2 |  | ~16 monomers | 3 monomers | 16 monomers
